Test results published in publication PMC9482650, “Quantitative fragmentomics allow affinity mapping of interactomes” (Nature Communications, 2022).

Legend:
Test in all cases: holdup assay
Parameters in all cases: key: below the threshold = too weak to quantify, mostly under pKd 3.1 to 4
[1] = molecular target: TJP1_2, Q07157
[2] = molecular target: GORASP1, Q9BQQ3
[3] = molecular target: T1, APBA3_1, O96018
T1 sequence (O96018 389-490, limits assumed, looked up): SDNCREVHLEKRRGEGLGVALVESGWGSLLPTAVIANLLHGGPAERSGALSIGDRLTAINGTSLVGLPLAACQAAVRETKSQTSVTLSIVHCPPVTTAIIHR

[4] = molecular target: Inadl_4, Q8NI35
[5] = molecular target: T2, SNTB1, Q13884
T2 sequence (Q13884 107-205, limits assumed, looked up): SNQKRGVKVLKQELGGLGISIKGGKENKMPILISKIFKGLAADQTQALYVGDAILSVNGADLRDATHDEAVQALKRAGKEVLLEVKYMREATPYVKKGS

[6] = molecular target: DLG2_2, Q15700
[7] = molecular target: T3, LRRC7, Q96NW7
T3 sequence (Q96NW7 1440-1537, limits assumed, looked up): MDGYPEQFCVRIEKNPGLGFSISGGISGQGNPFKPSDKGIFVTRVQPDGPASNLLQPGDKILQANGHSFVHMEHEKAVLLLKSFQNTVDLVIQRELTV

[8] = molecular target: SCRIB_1, Q14160
[9] = molecular target: T4, DFNB31_1, Q9P202
T4 sequence (Q9P202 135-233, limits assumed, looked up): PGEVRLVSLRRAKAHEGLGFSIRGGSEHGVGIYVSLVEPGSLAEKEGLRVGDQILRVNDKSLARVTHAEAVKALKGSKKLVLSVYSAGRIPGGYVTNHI

[10] = molecular target: PDLIM1, O00151
[11] = molecular target: T5, RHPN1, Q8TCX5
T5 sequence (Q8TCX5 508-602, limits assumed, looked up): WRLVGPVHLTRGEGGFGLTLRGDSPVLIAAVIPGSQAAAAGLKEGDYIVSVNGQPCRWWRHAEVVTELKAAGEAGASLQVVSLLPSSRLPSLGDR

[12] = molecular target: T6, PDZRN3_1, Q9UPQ7
T6 sequence (Q9UPQ7 244-349, limits assumed, looked up): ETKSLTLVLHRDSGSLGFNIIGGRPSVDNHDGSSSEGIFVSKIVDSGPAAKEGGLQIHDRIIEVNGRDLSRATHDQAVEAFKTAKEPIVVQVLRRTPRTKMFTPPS

[13] = molecular target: SCRIB_3, Q14160
[14] = molecular target: Inadl_1, Q8NI35
[15] = molecular target: T7, DLG3_3, Q92796
T7 sequence (Q92796 374-475, limits assumed, looked up): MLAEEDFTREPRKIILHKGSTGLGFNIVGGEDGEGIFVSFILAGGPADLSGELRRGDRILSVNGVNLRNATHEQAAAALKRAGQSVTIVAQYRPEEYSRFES

[16] = molecular target: NHERF4_4, Q86UT5
[17] = molecular target: GORASP2, Q9H8Y8
[18] = molecular target: FRMPD2_1, Q68DX3
[19] = molecular target: GRIP2_6, Q9C0E4
[20] = molecular target: Inadl_3, Q8NI35
[21] = molecular target: T8, MPDZ_10, O75970
T8 sequence (O75970 1624-1722, limits assumed, looked up): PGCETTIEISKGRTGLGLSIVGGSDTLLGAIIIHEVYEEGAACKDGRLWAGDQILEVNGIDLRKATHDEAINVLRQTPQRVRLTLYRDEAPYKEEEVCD

[22] = molecular target: T9, MPP7, Q5T2T1
T9 sequence (Q5T2T1 134-230, limits assumed, looked up): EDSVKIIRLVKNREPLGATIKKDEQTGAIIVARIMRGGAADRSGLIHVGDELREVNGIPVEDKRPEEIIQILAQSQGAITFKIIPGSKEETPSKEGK

[23] = molecular target: IL16_1, Q14005
[24] = molecular target: NHERF4_1, Q86UT5-2
[25] = molecular target: T10, DVL3, Q92997
T10 sequence (Q92997 244-331, limits assumed, looked up): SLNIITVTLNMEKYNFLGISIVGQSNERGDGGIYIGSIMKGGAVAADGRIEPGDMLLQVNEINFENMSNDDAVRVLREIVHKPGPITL

[26] = molecular target: T11, MPDZ_5, O75970
T11 sequence (O75970 695-796, limits assumed, looked up): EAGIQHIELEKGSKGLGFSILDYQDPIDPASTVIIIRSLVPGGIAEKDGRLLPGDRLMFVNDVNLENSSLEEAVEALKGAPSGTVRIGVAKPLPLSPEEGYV

[27] = plain residues with an end cap or a label only (N-terminal biotin on a linker: ado-ado)
[28] = modified: phospho on T at position -2 from the C-terminal residue

Sequence of PDLIM1, O00151 (O00151 1-87): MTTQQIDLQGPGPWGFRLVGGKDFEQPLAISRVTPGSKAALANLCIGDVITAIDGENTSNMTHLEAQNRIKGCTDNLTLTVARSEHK
Sequence of Inadl_4, Q8NI35 (Q8NI35 547-651): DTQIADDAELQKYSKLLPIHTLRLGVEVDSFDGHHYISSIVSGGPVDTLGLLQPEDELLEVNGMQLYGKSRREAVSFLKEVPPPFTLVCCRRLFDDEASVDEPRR
Sequence of SCRIB_3, Q14160 (Q14160 999-1103): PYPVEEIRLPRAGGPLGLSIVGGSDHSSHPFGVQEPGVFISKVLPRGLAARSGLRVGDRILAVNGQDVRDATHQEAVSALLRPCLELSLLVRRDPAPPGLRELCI
Sequence of GRIP2_6, Q9C0E4 (Q9C0E4 648-740): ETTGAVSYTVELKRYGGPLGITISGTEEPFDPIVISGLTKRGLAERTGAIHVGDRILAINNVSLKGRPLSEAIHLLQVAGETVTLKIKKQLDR
Sequence of FRMPD2_1, Q68DX3 (Q68DX3 770-861): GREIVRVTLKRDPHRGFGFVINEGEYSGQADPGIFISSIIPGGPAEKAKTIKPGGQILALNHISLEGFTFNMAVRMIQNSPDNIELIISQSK
Sequence of TJP1_2, Q07157 (Q07157 181-274): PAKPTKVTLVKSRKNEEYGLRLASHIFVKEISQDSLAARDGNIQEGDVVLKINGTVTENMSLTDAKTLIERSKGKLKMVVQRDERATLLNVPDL
Sequence of SCRIB_1, Q14160 (Q14160 718-814): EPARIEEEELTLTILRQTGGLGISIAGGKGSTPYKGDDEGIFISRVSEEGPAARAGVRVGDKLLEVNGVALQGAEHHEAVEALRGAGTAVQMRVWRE
Sequence of NHERF4_1, Q86UT5-2 (Q86UT5 other isoform, or with tags, fused parts or gaps): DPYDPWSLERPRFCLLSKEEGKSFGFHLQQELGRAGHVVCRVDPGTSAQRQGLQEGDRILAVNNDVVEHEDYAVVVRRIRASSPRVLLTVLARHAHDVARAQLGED
Sequence of IL16_1, Q14005 (Q14005 210-306): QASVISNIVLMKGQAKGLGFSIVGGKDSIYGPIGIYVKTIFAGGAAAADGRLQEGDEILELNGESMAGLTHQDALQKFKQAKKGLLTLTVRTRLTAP
Sequence of NHERF4_4, Q86UT5 (Q86UT5 464-550): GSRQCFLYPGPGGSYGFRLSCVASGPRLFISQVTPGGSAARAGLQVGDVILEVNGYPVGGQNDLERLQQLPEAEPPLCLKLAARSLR
Sequence of Inadl_3, Q8NI35 (Q8NI35 359-469): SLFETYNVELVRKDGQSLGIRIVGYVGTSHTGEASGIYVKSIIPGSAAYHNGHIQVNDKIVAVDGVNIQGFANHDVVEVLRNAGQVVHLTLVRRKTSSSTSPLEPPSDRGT
Sequence of Inadl_1, Q8NI35 (Q8NI35 113-229): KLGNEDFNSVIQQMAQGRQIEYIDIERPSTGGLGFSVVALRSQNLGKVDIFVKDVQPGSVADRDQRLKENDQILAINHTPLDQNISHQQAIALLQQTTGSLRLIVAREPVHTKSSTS
Sequence of DLG2_2, Q15700 (Q15700 189-283): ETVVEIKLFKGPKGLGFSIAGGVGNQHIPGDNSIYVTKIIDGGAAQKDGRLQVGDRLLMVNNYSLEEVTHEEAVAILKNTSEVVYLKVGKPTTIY
Sequence of GORASP1, Q9BQQ3 (Q9BQQ3 1-208): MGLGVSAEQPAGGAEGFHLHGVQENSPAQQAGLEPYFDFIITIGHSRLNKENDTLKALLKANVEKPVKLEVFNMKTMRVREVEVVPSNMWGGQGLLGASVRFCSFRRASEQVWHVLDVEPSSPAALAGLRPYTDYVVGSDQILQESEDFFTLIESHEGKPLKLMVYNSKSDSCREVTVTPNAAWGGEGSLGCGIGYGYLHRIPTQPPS

B1: LPXN, O60711 (peptide)
chain: QPCFNKLFPL
pKd [1, 27]: below the threshold | pKd [2, 27]: 3.68 | pKd [3, 27]: below the threshold | pKd [4, 27]: below the threshold | pKd [5, 27]: below the threshold | pKd [6, 27]: below the threshold | pKd [7, 27]: below the threshold | pKd [8, 27]: below the threshold | pKd [9, 27]: below the threshold | pKd [10, 27]: below the threshold | pKd [11, 27]: below the threshold | pKd [12, 27]: below the threshold | pKd [13, 27]: below the threshold | pKd [14, 27]: below the threshold | pKd [15, 27]: below the threshold | pKd [16, 27]: below the threshold | pKd [17, 27]: 4 | pKd [18, 27]: below the threshold | pKd [19, 27]: below the threshold | pKd [20, 27]: below the threshold | pKd [21, 27]: below the threshold | pKd [22, 27]: 4.05 | pKd [23, 27]: below the threshold | pKd [24, 27]: below the threshold | pKd [25, 27]: below the threshold | pKd [26, 27]: below the threshold

B2: HPV18-E6_-2P, P06463 (peptide)
chain: RLQRRRETQV
pKd [1, 28]: below the threshold | pKd [2, 28]: below the threshold | pKd [3, 28]: below the threshold | pKd [4, 28]: below the threshold | pKd [5, 28]: below the threshold | pKd [6, 28]: 3.48 | pKd [7, 28]: below the threshold | pKd [8, 28]: below the threshold | pKd [9, 28]: below the threshold | pKd [10, 28]: below the threshold | pKd [11, 28]: below the threshold | pKd [12, 28]: below the threshold | pKd [13, 28]: below the threshold | pKd [14, 28]: below the threshold | pKd [15, 28]: 3.52 | pKd [16, 28]: below the threshold | pKd [17, 28]: 4.13 | pKd [18, 28]: below the threshold | pKd [19, 28]: below the threshold | pKd [20, 28]: below the threshold | pKd [21, 28]: below the threshold | pKd [22, 28]: below the threshold | pKd [23, 28]: below the threshold | pKd [24, 28]: 3.6 | pKd [25, 28]: below the threshold | pKd [26, 28]: below the threshold

B3: PRKD2, Q9BZL6 (peptide)
chain: QGLAERISVL
pKd [1, 27]: below the threshold | pKd [2, 27]: 4.08 | pKd [3, 27]: below the threshold | pKd [4, 27]: below the threshold | pKd [5, 27]: 4.92 | pKd [6, 27]: below the threshold | pKd [7, 27]: below the threshold | pKd [8, 27]: 3.77 | pKd [9, 27]: below the threshold | pKd [10, 27]: below the threshold | pKd [11, 27]: 4.62 | pKd [12, 27]: 3.84 | pKd [13, 27]: 4.19 | pKd [14, 27]: below the threshold | pKd [15, 27]: below the threshold | pKd [16, 27]: 3.97 | pKd [17, 27]: 4.16 | pKd [18, 27]: below the threshold | pKd [19, 27]: below the threshold | pKd [20, 27]: 3.64 | pKd [21, 27]: 3.76 | pKd [22, 27]: below the threshold | pKd [23, 27]: 4.16 | pKd [24, 27]: 4.27 | pKd [25, 27]: below the threshold | pKd [26, 27]: below the threshold

B4: NLGN2, Q8NFZ4 (peptide)
chain: LPHPHSTTRV
pKd [1, 27]: below the threshold | pKd [2, 27]: 3.58 | pKd [3, 27]: below the threshold | pKd [4, 27]: below the threshold | pKd [5, 27]: 4.22 | pKd [6, 27]: 3.59 | pKd [7, 27]: below the threshold | pKd [8, 27]: below the threshold | pKd [9, 27]: 4.13 | pKd [10, 27]: below the threshold | pKd [11, 27]: 3.83 | pKd [12, 27]: below the threshold | pKd [13, 27]: below the threshold | pKd [14, 27]: below the threshold | pKd [15, 27]: 3.86 | pKd [16, 27]: below the threshold | pKd [17, 27]: 3.92 | pKd [18, 27]: below the threshold | pKd [19, 27]: below the threshold | pKd [20, 27]: below the threshold | pKd [21, 27]: 3.62 | pKd [22, 27]: below the threshold | pKd [23, 27]: below the threshold | pKd [24, 27]: below the threshold | pKd [25, 27]: below the threshold | pKd [26, 27]: below the threshold

B5: CCDC134, Q9H6E4 (peptide)
chain: PRISRSQSEL
pKd [1, 27]: below the threshold | pKd [2, 27]: below the threshold | pKd [3, 27]: below the threshold | pKd [4, 27]: below the threshold | pKd [5, 27]: below the threshold | pKd [6, 27]: below the threshold | pKd [7, 27]: below the threshold | pKd [8, 27]: below the threshold | pKd [9, 27]: below the threshold | pKd [10, 27]: below the threshold | pKd [11, 27]: below the threshold | pKd [12, 27]: 3.65 | pKd [13, 27]: 4.06 | pKd [14, 27]: below the threshold | pKd [15, 27]: below the threshold | pKd [16, 27]: below the threshold | pKd [17, 27]: below the threshold | pKd [18, 27]: below the threshold | pKd [19, 27]: below the threshold | pKd [20, 27]: below the threshold | pKd [21, 27]: below the threshold | pKd [22, 27]: below the threshold | pKd [23, 27]: below the threshold | pKd [24, 27]: 3.86 | pKd [25, 27]: below the threshold | pKd [26, 27]: below the threshold
